B1: POU domain, class 2, transcription factor 2, residues 200 to 269; numbered along this chain, P09086 (parent)
chain: LEELEQFARTFKQRRIKLGFTQGDVGLAMGKLYGNDFSQTTISRFEALNLSFKNMCKLKPLLEKWLNDAE

Variants of: B1
Experiment: abundance fitness (aPCA) (normalised: wild type 0, dead -1); higher = more abundant; growth selection in yeast, the domain comes from the species named
Details: Homo sapiens

Abundance fitness: each site, then its substitutions
F7: K -0.783; M -0.226; P -1.13; I -0.397; W -0.1; R -0.96; L -0.286; D -0.595; T -0.281; C -0.114; Q -0.676; N -0.48; V -0.237; Y -0.192; H -0.416; E -0.357
T10: K -0.024; S -0.016; R -0.022; Y -0.025; Q 0.015; V -0.04; W -0.142; I -0.052; P -1; E 0.012; F 0.003; H -0.013; A -0.035; C -0.084; N 0.012; M -0.011; D 0.022
Q6: Y -0.056
F11: T -0.495; P -1.03; W -0.209; V -0.239; Y -0.627; E -0.977; M -0.167; L -0.177; G -0.789; R -1.01; C -0.143; N -1.1; S -0.242; D -0.565; A -0.151; K -0.961; I -0.254; Q -1.01
A8: P -0.506; Q -0.63; G -0.28; S -0.113; I -0.082; V -0.057; F -0.708; L -0.371; K -0.856; T -0.065; H -0.604; D -0.883; Y -0.955; C 0.034; E -0.846; W -0.452
R15: G -1.01; T -1.01; Y -0.243; H -1.13; S -1; Q -1.04; F -0.99; A -0.977; C -0.698; P -1.16; K -1.08; N -0.799; E -0.897; W -0.913; I -0.85; L -0.806; V -0.806
I16: V -0.039; Y -0.194; G -0.095; P -0.895; D -0.133; N -0.003; H -0.16; L -0.042; R -0.059; T 0.017; A -0.085; F -0.141; C -0.149; M -0.06; K -0.021; S -0.071; E 0.048; Q -0.013
L18: A -0.025; D -0.763; C -0.213
R14: Y -0.149; P -1.23; E -0.138; N 0.03; A -0.064; W -0.271; T 0.023; M -0.061; V -0.128; D -0.327; Q -0.084; K 0.024; I -0.261; G -0.021; H -0.118
K17: C 0.011; M 0.001; L -0.006; D 0.016; A -0.049; H -0.2; G -0.027; E -0.082; T -0.07; I -0.072; Y -0.121; V -0.063; W -0.129; Q -0.096; S -0.009; N 0.02; R 0.006; F -0.096
R9: Q -0.143; K -0.011
Q13: F -0.032; T 0.001; V -0.023; Y -0.169; M -0.023; P -0.293; S -0.006; R -0.054; E 0.06; K -0.041; C -0.115; H -0.085; N -0.07; D -0.04; W -0.172; G -0.038; L -0.033
K12: A -0.254; W -0.337; E -0.147; R -0.142; L -0.232; N -0.583; H -0.127; I 0.02; S -0.022

— the Human Domainome abundance scans (Beltran et al. 2025)
